Reference: the DeepSol protein solubility set

Experiment: soluble on expression in E. coli; label from the status in PepcDB or PDB records

Row | Sequence | soluble on expression in E. coli
1 | MLKFISLLGTSKYVPCNYFIKNREELKINDCCYVQKAILDILRQENVIPDKIIIFTTDEAHVSNWENNKWNNKGDKNDVQEIEDELQKRPGLKGELEKYKELTGADFKSVRIPNGIREEDLWEIFRTIFDEIDENDEIIFDVTHSFRYLPMLVFIVINYARVVKKCKLKSIYYGAFEVLGTPETVAKIPLEERNAPIFDLTSFVDLFDWTMGIDRYLNTGDVSVVHELTDIQIKRVNKEKLKFISKSEQGVDPKTLFMDSRQLRALSESMKNFSDVVFTCRGLELTRVACELKEKLREVTESASRQHIIPLMPVLEMMKERFDKFSKDNDYINIIETARWCADNKMYQQGLTILEEGLISFGCEKLGYENLSDKIDLDKRRKIGSYAFVVSNDFGRKSDNKKEKIPLLNIKSDVITDLLILIDEISSIRNDINHAGWRKDPSEAGAFGEQLKNFISRAEKIISPENFSTESDKCINNDSVDKEKKMLLILSHKLVPKQEEEARQRFGISKFLPMPNELHNKWSNIPPELEDLRDYLNDILEWIDLNAQEGDYALIQGDYGATFIAVNHCLAKGIIPVYSTTHRIVREEKNEDKVISVREFEHVILRKYEN | not soluble
2 | MLKGILYIIGIYQRYLSPLKGPTCRFYPSCSRYAHESLTRYGLVKGLWLTTIRILKCHPFHPGGVDPVKLEHHHHHH | not soluble
3 | MLKIGVLVSGRGSNLQAIIDAIESGKVNASIELVISDNPKAYAIERCKKHNVECKVIQRKEFPSKKEFEERMALELKKKGVELVVLAGFMRILSHNFLKYFPNKVINIHPSLIPAFQGLHAQKQAVEFGVKFSGCTVHIVDESVDAGPVIVQAVVPVLPEDDENTLADRILKWEHKILPQTVQWFAQDRIIIDGRKVIVKDATYGTLPVNPALEIF | soluble
4 | MLKINYPIKGACQCGQVTYQLLAAPLMVAACHCRECQKLSTSAFSITAVVNATDVVFSGEMSDWSRLADNGNTNGAKFCPCCGNRIYHFNPNFPDKIKLKPSTLEDTRVIQPTMHIWTSEKQAWFKLPLDLPSHEKQPF | not soluble
5 | MLKKRELQDCHALYELMVHPDVFPFVRQKASSYEEFLFMTKQLMEAEERGELISRTILDEWGNPIGTISLFDIQDGAGFLGTWLGKPYHGLGYNRRAKEAFFHELFYELSIETVFLRIRKVNVRSIKAAEKLPYVTPANETRRALLEQIGADVYNLYEITKDNYTLYTMRHPSFAHNEEQRKEA | not soluble
6 | MLKRRQPKYCSFMDSIDNSTTIIRKNLNRFIRELTDDGKLDFESIPYQNLQKEVANQDEEGCENVIEVLLDTTSRSGCPDRKLILQLFNSFFLQFPIFRENLLNDPSEFLELMFETNPIRNPLPGSKKHGNELKVEAITVIKSWEKEKCVKNDARMKCLVVTLKKTKFVDYENGAKKIEAERKRKKILEERKMKMIENSVNVYSSKYHEIKNDAETLSMELTTTMQMLVPSFTTADPEVPSTSTSTPSAISDSKSFEIFIPDLTPEISVSSENDAIVEAFLGAKLSLIHRVQTLRKLVKRLQLLKQPGEKLAQEIIDYRDGIKNLVLKADELRIINPRPPKNKRKKSDDDFIDVDISIDDILMVQYAEKLEVDVKSKDESEKITESPEKHKIEMKNEKPVKIKTVPFGLDLKYWGEERKDVEVPKNNADCHRFWRSADEGTVAGKAQQSIYTQRQYTFIGKAPDNRKVCLAKMKSGKLCPRKDYYTCPLHGKIVDRDDEGRPINEEDRLEENYRKEQNHLKEADKIRQMIEKEYESKTKRRKKHDVDTTASEDVRNRLQKKLLDPKTIQRVSADLDASRKNRLEKNFGQQFSHF | not soluble
7 | MLKSAFILASAPLFFTLAACSGESGTQVNTASAPATQVSRNIGSTVKNRGKLICGVSGELPGFSFVGTDAKYSGIDVDVCRAVTAALFDNPDAVEFRNLNTKERFTALQTGEIDLLSRNTTWTMSRETSVGLQFAPVIFYDGQAIMVSKNSGIKSLADLKNKAICTQTGTTTEQNLADQMRKRSITYKPVVFEDVNITFATYAEGRCDGVTTDRSALISRRTTLPKPEDNIILDELLSSEPLAPAVAKGDPQWNDIVKWVVYSLVKAEELGINSQNIAQLTNSNDPDIKRFLGTEGNLGEGLGLTNDFAARIVKHVGNYGEVYDRNLGGKTKLNLPRGQNQLAIKGGLLYSPPFR | not soluble
8 | MLKYRDEKDISACGIFGIMDRKGRRFNGKLVIEAMSQMKVRGNGLGAGFAVYGLYKKFKEYYAFHVMIYDKDGREKLEKFLSTNFDIVYVDEIPVNDKAKVIDPPKFMRYFVAPRKKGTEKVLNDDDFVVKKVMYINRAIPGVYVISSGKNMGVFKGVGFPEDIADYFMIEEYKGYIWTAHTRFPTNTPGWWGGAHPFSILDWSVVHNGEISSYGTNKRYLEMYGYYSTLQTDTEVITYIFDLLVRRQGLPIEVVSKILAPPMWEEIDRMPEKEKKFYKALRMVYSPILLNGPWAIIVARHGEMIGLTDRIRLRPLTVAEKKSFLIISSEEAPIRYLFRDVDRIYTPYGGELVVGKLEEDIKKFVGESQ | not soluble
9 | MLLFSRQGKLRLQKWYMAYPDKVKKKITRELVTTILARKPKMCSFLEWKDCKIVYKRYASLYFCCAIEQNDNELLTLEIIHRYVELLDKYFGSVCELDIIFNFEKAYFILDELLIGGEIQETSKKNVLKAIASQDLLQEDETPQSFFDDHGLG | soluble
10 | MLLKTIYCKVEEEKKKLFSNAQEKWSDIRHLDGFHGQFGGWYEDEACVFTLWEDRSTYQSFMNGAHDTIYLNSNQEDTFLSCEIELFQTLYDITDTHLKDVVTEGSFVRVAICDVKVEKEKYFLQKQETIWNKGMEKAKGMLGGVVGKSLKNENRYIVLTYWKDEQTHQHYVEEIFPDLYKLANIHEDIEEIKGKQAVCKEEWLVY | not soluble
11 | MLMDGHTHTELCPHGSGEATEKMIQRAIQLGFQRYCITEHAPLPPAFRDQYEGTPAGYTEASLRENQVADYLALANGLKTKYAGQIEISVGFEVDFLPEHVAWTRDFLNTYGPRTQESILSVHFMRGLRQHFWCVDMSTDDFAAGFGQWLKTPQRVFEQYYQTVLASVQADLGPYAPQRIGHMSLVRKYQDYFGLTEPLDVHNLQLVDQTLALVKQQRRQLDLNLAGLYKPYCNDFYPGEQILQRAQKLDIPLVYGSDAHDIASVGRGYHLIKKLIEGLEHHHHHH | not soluble
12 | MLNIFCPHCGELRSEEEFHAKGQAHIPRPLDPNACSDEEWGDYMFFRDNPRGLHHELWVHAAGCRKYFNVTRHTVTYEILETYLIGEQPSVVADGEKKPAVQGEPA | not soluble
13 | MLNNKRLFTSESVTEGHPDKIADQVSDAILDAILKDDPNARVACETTVTTGMALIAGEISTTTYVDIPKVVRETIKEIGYTRAKYGYDYETMAILTAIDEQSPDIAQGVDKALEYRDKDSEEEIEATGAGDQGLMFGYATNETETYMPLAIYLSHQLAKRLSDVRKDGTLNYLRPDGKVQVTVEYDENDNPVRIDTIVVSTQHAEDVTLEQIQEDIKAHVIYPTVPENLINEQTKFYINPTGRFVIGGPQGDAGLTGRKIIVDTYGGYARHGGGCFSGKDPTKVDRSAAYAARYVAKNIVAAGLADQCEVQLAYAIGVAEPVSIAIDTFGTGKVSEGQLVEAVRKHFDLRPAGIIKMLDLKQPIYKQTAAYGHFGRTDVLFPWEKLDKVEELKDAVK | not soluble
14 | MLNSAPSETEKSETEGSETKESNLVIEDEEERKECTSVKKTEGHFTRQVDQVTKYDKDYIWSLVHSQLREGGLSQAASDLVMSYFEERYAYALEHIRFARTAEAIAEYVFNGVLSEWTKQLR | not soluble
15 | MLPDKGWLVEARRVPSPHYDCRPDDEKPSLLVVHNISLPPGEFGGPWIDALFTGTIDPDAHPFFAEIAHLRVSAHCLIRRDGEIVQYVPFDKRAWHAGVSNYQGRERCNDFSIGIELEGTDTLAYTDAQYQQLAAVTRTLIASYPAIADNMTGHCNITPDRKTDPGPAFDWPRFRALVALSSHKEMT | not soluble
16 | MLPERVLEILREMKRERIKGASWLAKKGAEAFLTLAEELDESLLEDAIMELREEVVKVNPSMASLYNLARFIPVTNRRDILKSRALEFLRRMEEAKRELASIGAQLIDDGDVIITHSFSSTVLEIIRTAKERKKRFKVILTESSPDYEGLHLARELEFSGIEFEVITDAQMGLFCREASIAIVGADMITKDGYVVNKAGTYLLALACHENAIPFYVAAETYKFHPTLKSGDVMLMERDLIRGNVRIRNVLFDVTPWKYVRGIITELGIVIPPRDIQ | soluble
17 | MLPLPTWTLSDVDAILVLSFGGPEGQQDVIPFLENVTRGRGIPRERLEEVAVHYRHFGGISPLNALNREIIGNIIEVLSSRGLEIPVYFGNRNWHPFVNDTAEKMVRDGVRNVAVFATSAWGGYSGCRQYDEDIVRMNHHLEEKELPTLNCLKLRQFFDHPLFIEEMSSVVFQAARELGISALDELQLHQKVVFTAHSIPEVANENSGRKEDGPLYSRQVYEAASLVAKHLGISQERYDVVWQSASGNGQIPWLEPDILDYAKCQHDEGVSELVVAPIGFISDHMEVVWDLDHELQDLASDLGMSISRAATVGHTDSFATMIVELVEESLGVKPHQNLGTVPSKGCSFNGEPCEVNCCKPVQRPHSAKA | not soluble
18 | MLPNVAVEFDENSIFRSLGKGNLTFREAFEEIIKFIEADTNSSYRISIGTDSHVGNGTLFVTCIHVHRIGKGAIGFLHKSLMSRPIRNLREKIYMETCMSLQLAYLFDEEKIDRIYKALGKNGKSPTKGVTFEFHIDIGKRGETKALINEMVGMVSGLNFIPKIKPDSYCASCFADRYTKAI | soluble
19 | MLPRTMAADEGHVPGRFDAVIVGGGHNGLVAAAYLARAGRSVLVLERLGNTGGAAVSTRPFAGVDARLSRYSYLVSLLPRKIVRDLGLDFRVRGRTVSSYTPAERHGRPTGLLVGGGERRTREAFGRLTGSAREYESWQRFYGMTGRVARQVFPTLTEPLPSRDELRRRVDDEDAWRVLFEEPIGAAIEENFTDDLVRGVVLTDALIGTFADAHDPSLRQNRCFLYHIIGGGTGAWDVPVGGMGALTDALAAAARDAGAVLATGHEAVRIETDGRSAEVTYRDADGEGTVSARHVLVNAAPQELARLTGDSPPVPAEGAQLKVNMLLKRLPALRDTAVDPREAFAGTFHIAEGYEQLAAAHAQAAAGSLPEAPPSEIYCHSLTDPTILGPDLVEQGYQTLTLFGLHTPARLFERDNEGVREELLKSTLAQLDAHLAEPLVDCLATDAEGRPCIEAKSPLDLERDLRLPGGNIFHRDLAFPYAQEGTGRWGVETAHANVLLCGAGAVRGGGVSGVPGHNAAMAALEDVGERALGLEHHHHHH | not soluble
20 | MLPTTSSLQIGELAAGQALTLPIYHFKPSGKHSGPKVYIQANVHGAEVQGNAVIYQLMKQLERCDILGEITLVPLANPLGINQKSGEFTLGRFDPITGVNWNREYLNHAIDLPTWYKEHAELSDSELIQAYRSTLVEACQRRLRNDWGVTTGHRLAVNLQAMAHEADIVLDLHTGPKSCKHLYCPEYDIASAQFFAIPYTLVIPNSFGGAMDEAAFCPWWQLSEVAKVMGRDLEIAVSAFTLELASQERICLEDALVDAKGILAYLSHRGVIAEQVEPAKMRRFGCYLKDYKKYHAPMAGLVEYVAPVGEPLAAGETLVNLLRLDLYGSEQELTALSLPQDCVPILHFASASVHQGTELYKVMTNLFELPH | soluble
